Test results from the DeepSol protein solubility set.

assay: soluble on expression in E. coli; label from the status in PepcDB or PDB records

Row | Sequence | soluble on expression in E. coli
1 | MTLSGGTIDILKTRSLAKLQGSKEVMKQKLEIPIHGSVTDNIFSEVRDSFRRNFTEGWEKAGAAFCVIHKGKVIVDLWGGYADKECFKEWKEDTISTIFSCTKSVTAICFAILVDRGLLKYSDKVTKYWPEFGQNGKQDITIEMVLSHTAGLPYFPGVKFTEEDLTDNNKLSHMIENLKPVFAPGTRTAYHALTFGWLTDQIFRRVDSQKRTVGQFFKDEIATKHYIDIHIGECSNEENRLARLFKCPATLVSREIAYDRSILKLARYYYNPRGLFAAARRNLSLHGSDFTMFNNSDLRVVGQPAVNGIGSARAMAQLHQLVLDGTLLSKETFDIIKHPRKMTSFDYLIGEPQNKEHGFTYFKSPLNTWQFGHPGVGGQMVRVDVENDLIVAYLTNGMKTAGCEDHVFTFNRLQRKVYECLKRIPKFELPPPEDIVENE | not soluble
2 | MVVGVAGYYGFRNAGDEAILEAIARELKARGHEVVALSGDPKRTREDHGLRAYHRLNPLALLRADLWLLGGGGLLQDATSALSLTYYLSVLRLARLFRKRVVVFNQSLGPLSPWGERRVRKALQGVPVILRDQDSLEYARRLGIPAALGADPALLLPPPPVPREEDLVLVIPRAGVREEALTTLYVAANHLVHEGKQVLVLLLQPGYDDEVAEVFRLHRIERTSDPRRLLYLAAQAGYVISMRLHGLILAAAAGTPFAALSYDPKVAAFAKETGAYYQELPGEPIKLYKAALYGRFPDWEKVARLKERARQSFDLALGEGVPIKGSGRG | soluble
3 | MSLSHRPVINASVSPKGTLETLSQREVQQLSETANGKTYQLFRQCAPAILNTGAHSDNAKTILDAYKDFEVRIHQQDRGVRLELINAPADAFVDGEMIASTREMLFSALRDIVYTQSGLDSQHVDLDSSQGLTDYVFQLLRNARTLRPGVEPKIVVCWGGHSISSEEYKYTKRVGHELGLRSLDVCTGCGPGVMKGPMKGATISHAKQRIVGGRYLGLTEPGIIAAEAPNPIVNELVILPDIEKRLEAFVRVGHGVIIFPGGAGTAEEFLYLLGILMHPDNQDLPFPVILTGPRSAEAYLQQLHEFVGATLGHAAQRHYRIVIDDPAEVAKQMAQGLKEVKQFRRERNDAFHFNWMLKIDESFQRPFEPTHENMASLQLSRSLPPHELAANLRRAFSGIVAGNVKDNGIRMIEQYGPYEIHGDPAVMLPLDRLLQAFVKQHRMKLPGGAAYVPCYRVVQTEAAEGHHHHHH | soluble
4 | MNIAAESSAKPVWGPPNFCAAAARMQDVRVLMHPKTGRAFRSPVEPGSGWPGDPATPQTPVAADAAQVSALAGGAGSICELNALISVCRACPRLVSWREEVAVVKRRAFADQPYWGRPVPGWGSKRPRLLILGLAPAAHGANRTGRMFTGDRSGDQLYAALHRAGLVNSPVSVDAADGLRANRIRITAPVRCAPPGNSPTPAERLTCSPWLNAEWRLVSDHIRAIVALGGFAWQVALRLAGASGTPKPRFGHGVVTELGAGVRLLGCYHPSQQNMFTGRLTPTMLDDIFREAKKLAGIE | soluble
5 | MVCFGVGSGGTVTGVGRYLRAQKQNIGVYPVEPFESSVLSGFPRGPHKIHGIGAGLIPGNVDRSLFTEVLRVKSEDAMKMARRLADEEAILGEISSGANVVAAVELACRPENIGKLIVTTVNSFAERYFSTELYSTLLSEVSKLPISTDEQAVDIAKKYLGL | not soluble
6 | MVNAEEQQYLNLVQYIINHGEDRPDRTGTGTLSVFAPSPLKFSLRNKTFPLLTTKRVFIRGVIEELLWFIRGETDSLKLREKNIHIWDANGSREYLDSIGLTKRQEGDLGPIYGFQWRHFGAEYIDCKTNYIGQGVDQLANIIQKIRTSPYDRRLILSAWNPADLEKMALPPCHMFCQFYVHIPSNNHRPELSCQLYQRSCDMGLGVPFNIASYALLTCMIAHVCDLDPGDFIHVMGDCHIYKDHIEALQQQLTRSPRPFPTLSLNRSITDIEDFTLDDFNIQNYHPYETIKMKMSI | soluble
7 | MVIGQKVLLARIPKMGDNYSTYLLDIEGTVCPISFVKETLFPYFTNKVPQLVQQDTRDSPVSNILSQFHIDNKEQLQAHILELVAKDVKDPILKQLQGYVWAHGYESGQIKAPVYADAIDFIKRKKRVFIYSSGSVKAQKLLFGYVQDPNAPAHDSLDLNSYIDGYFDINTSGKKTETQSYANILRDIGAKASEVLFLSDNPLELDAAAGVGIATGLASRPGNAPVPDGQKYQVYKNFETL | not soluble
8 | YPPSMDWRKKGNFVSPVKNQGSCGSCWTFSTTGALESAVAIATGKMLSLAEQQLVDCAQNFNNHGCQGGLPSQAFEYIRYNKGIMGEDTYPYKGQDDHCKFQPDKAIAFVKDVANITMNDEEAMVEAVALYNPVSFAFEVTNDFLMYRKGIYSSTSCHKTPDKVNHAVLAVGYGEENGIPYWIVKNSWGPQWGMNGYFLIERGKNMCGLAACASYPIPLV | soluble
9 | MIHYRMDQPDRVRCSVCGGIADEVDETYPEEGDFILVIYRCRDCGHLEKRQYGKPVKIID | not soluble
10 | MSVQLKCDAVNCVYNRSHLCSAEEIEVQGGETTGGDATFCGTFSSKSLGNFVSSLGNMNYSGSLKQAVSAEPIMDPKVHCNAVNCTYNDQRYCHADQVEIRNEVSHTAEELEHHHHHH | soluble
11 | MKKQKKARLIYNPTSGQEIMKKNVAEVLDILEGFGYETSAFQTTPTKNSARDEATRAAQAGFDLIVAAGGDGTINEVVNGIAPLKRRPKMAIIPTGTTNDFARALKIPRGNPIEATKLIGKNQIVKMDIGQAQEDNYFINIAAAGSLTELTYSVPSQLKTTFGYLAYLAKGVELLPRVRKVPVKITHDKGEFIGDASMIFVAITNSVGGFEQIAPDAKLDDGKFTLILVKTANLIEIMHLIRLVLAGGKHINDKRVEYIKTSYLTIEPLSDERMMINLDGEYGGDAPITLANLKNHIRFFANTDEISDDALVLDKDELAIEAIAQKFANEVDDLEGLGD | soluble
12 | MAHHHHHHMRRVVITGLGLVSPLASGVEETWKRLLAGESGARRVTEFEVDDLACQIACRIPVGDGTNGTFNPDLHMDPKEQRKVDPFIVYAVGAADQALDDAGWHPENDEDQVRTGVLIGSGIGGIEGIVEAGYTLRDKGPRRISPFFIPGRLINLASGHVSIKHKLRGPNHSVVTACATGTHAIGDAARLIAFGDADVMVAGGTESPVSRISLAGFAACKALSTERNDDPTAASRPYDEDRDGFVMGEGAGIVVLEELEHALARGAKIYAEVIGYGMSGDAFHITAPTESGEGAQRCMVAALKRAGIVPDEIDYINAHGTSTMADTIELGAVERVVGEAAAKISMSSTKSSIGHLLGAAGAAEAVFSTLAIRDNIAPATLNLDNPAAQTRIDLVPHKPRERKIDVALSNSFGFGGTNASLVLRRYTA | soluble
13 | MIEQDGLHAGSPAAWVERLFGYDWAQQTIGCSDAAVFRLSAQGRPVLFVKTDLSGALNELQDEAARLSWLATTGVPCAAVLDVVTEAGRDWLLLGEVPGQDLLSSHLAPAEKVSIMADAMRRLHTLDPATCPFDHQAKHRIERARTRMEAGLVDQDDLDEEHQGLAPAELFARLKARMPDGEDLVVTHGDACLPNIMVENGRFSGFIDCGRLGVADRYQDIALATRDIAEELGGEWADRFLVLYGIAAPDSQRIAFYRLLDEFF | soluble
14 | MSEPLLEVKNLKTYFPIKGGIFSRTVGHVKAVDGVSFTIKKGEVFGLVGESGSGKTTIGKTILRLVQKTEGEVKFKGHDVHSLSKEELRKHRPNMQLVFQDPFSSLNPRMRIGEALGEPMLAHGLATKENVREKVTEVLELCGLAPYHIDRYPHEFSGGQRQRIVIARAMVLNPEFIVADEPVAALDVSIQAQIINLFSELQEKKGLSYLFISHDLSVVEHLCTKIGIMYLGTIVETAPRDELFTNPLHPYTKALLSAVPIPDPTVKRERIILEGDIPSPANPPSGCCFHTRCPFATDICKQTGNSVMLVKSTLLLVIMYKREGLFQKLKESFFIY | not soluble
15 | MFVRSLFLALLLATIVAADIDFSTCARMDVPILKKAAQGLCITSCSMQNCGTGSCKKRSGRPTCVCYRCANGGGDIPLGALIKRG | not soluble
